Laboratory results from the supplement of paper PMC10126150.
± gives the standard deviation of the averaged measurements.

Test system: ATP
Test: switch fluorescence ratio, 500 uM ATP over buffer (Cy3 cluster intensity, sum of 5 cycles each) (fold (ratio)); higher = stronger signal-on switching upon ATP binding; sequences stand for … in TCGTCGGCAGCGTCAGATGTGTATAAGAGACAGTTTTTTTTTTTTTTTTTTTTTTTTT…TC
Details: aptamer strand: ATP DNA aptamer (quencher-CACCTGGGGGAGTATTGCGGAGGAAGG + anchor), 100 nM annealed; ATP concentration: 500 uM
Summary of the method: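 Five buffer/ATP imaging cycles were run on Cy3-labelled switching-strand clusters on a modified Illumina MiSeq flow-cell, with NaOH stripping and re-annealing between cycles. In each cycle, clusters annealed to 100 nM quencher-labelled ATP aptamer were imaged in selection buffer, then after 15 min with 500 uM ATP at 22 °C. Per cluster, the fluorescence ratio is summed target-cycle over summed buffer-cycle Cy3 intensity, averaged per switch-domain sequence. Only clusters within 100-1000 RFU were kept.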
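Note: ATP exposure 15 min at 22 °C before imaging.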

Sequence | switch fluorescence ratio
CGTGGCAGGA | 1.03 ± 0.021
CGTGGGGGAT | 1.01 ± 0.029
CGTGGGGTGG | 1.02 ± 0.045
CGTGGGTTCG | 0.961 ± 0.025
CGTGGTGTGT | 0.992 ± 0.0011
CGTGGTGTTG | 0.991 ± 0.015
CGTGGTTAAG | 1.01 ± 0.038
CGTGGTTCAG | 0.996 ± 0.014
CGTGTCCGGT | 1.01 ± 0.043
CGTGTGATGC | 1.05 ± 0.015
CGTGTGATGT | 0.973 ± 0.03
CGTGTGGCGT | 1.05 ± 0.016
CGTGTGGCTG | 0.992 ± 0.034
CGTGTGGGGA | 1.02 ± 0.045
CGTGTTAATT | 0.982 ± 0.034
CGTGTTGTTG | 1.02 ± 0.022
CGTTAAACGT | 1.01 ± 0.036
CGTTAATTTT | 0.983 ± 0.026
CGTTACTACG | 1.06 ± 0.028
CGTTACTGGT | 0.973 ± 0.016
CGTTAGCGGG | 1 ± 0.018
CGTTAGGCGC | 0.985 ± 0.013

Sequence | switch fluorescence ratio
CGTTAGGGCA | 0.979 ± 0.02
CGTTAGTATT | 0.9936 ± 0.00056
CGTTAGTGTA | 0.99 ± 0.023
CGTTATATAA | 1.04 ± 0.014
CGTTATCGTG | 0.9826 ± 0.0061
CGTTATGGGC | 0.979 ± 0.022
CGTTATTCAC | 1.03 ± 0.036
CGTTATTGAG | 0.95 ± 0.016
CGTTATTGGC | 1.02 ± 0.034
CGTTATTTAT | 0.9985 ± 0.0089
CGTTCAACGA | 1 ± 0.029
CGTTCACCGG | 0.959 ± 0.049
CGTTCACCTG | 0.996 ± 0.038
CGTTCCAGGC | 1.083 ± 0.0064
CGTTCCCCCA | 1.355 ± 0.013
CGTTCGCCGG | 0.99801 ± 8.6e-05
CGTTCTAGTG | 0.974 ± 0.011
CGTTCTGGGG | 0.984 ± 0.05
CGTTCTGGTC | 0.999 ± 0.046
CGTTGAATAA | 1.017 ± 0.0089
CGTTGATGCT | 1.01 ± 0.02
CGTTGCACCT | 0.952 ± 0.051

Sequence | switch fluorescence ratio
CGTTGCAGGG | 0.984 ± 0.024
CGTTGCTATG | 1.01 ± 0.028
CGTTGCTTTG | 0.9869 ± 0.0016
CGTTGGAAGG | 0.985 ± 0.021
CGTTGGCGTG | 0.947 ± 0.036
CGTTGGGAAG | 0.9779 ± 0.0087
CGTTGGGTGG | 1.02 ± 0.076
CGTTGTAAAT | 0.9823 ± 0.0071
CGTTGTATAG | 0.971 ± 0.016
CGTTGTGGAA | 1.006 ± 0.0056
CGTTGTTCGA | 1.02 ± 0.012
CGTTGTTGAA | 0.968 ± 0.036
CGTTGTTGGT | 1.015 ± 0.009
CGTTTAACAC | 0.997 ± 0.02
CGTTTAGGCA | 1.02 ± 0.024
CGTTTATTGA | 1.004 ± 0.0086
CGTTTCAAGG | 0.975 ± 0.016
CGTTTCGTTG | 0.9635 ± 0.0019
CGTTTGACCT | 1.03 ± 0.026
CGTTTGAGTG | 1.02 ± 0.023
CGTTTGGGCA | 1.01 ± 0.017
CGTTTGGGTC | 1.01 ± 0.031

Sequence | switch fluorescence ratio
CGTTTGGGTG | 1.02 ± 0.055
CGTTTGTATC | 1.02 ± 0.022
CGTTTGTCGG | 1.01 ± 0.059
CGTTTGTCGT | 1.04 ± 0.031
CGTTTGTCTA | 1.01 ± 0.051
CGTTTGTTTT | 1 ± 0.041
CGTTTTATTG | 0.99 ± 0.049
CGTTTTGCAG | 1.03 ± 0.032
CGTTTTGCAT | 1.09 ± 0.11
CGTTTTGTTA | 0.977 ± 0.028
CGTTTTGTTG | 0.998 ± 0.014
CGTTTTTAAA | 1.02 ± 0.04
CGTTTTTACA | 1 ± 0.015
CGTTTTTATT | 1.01 ± 0.015
CGTTTTTCGT | 0.9779 ± 0.0038
CGTTTTTGGA | 0.966 ± 0.018
CGTTTTTGTT | 1 ± 0.025
CGTTTTTTCG | 1 ± 0.075
CGTTTTTTCT | 0.974 ± 0.015
